Source: patent publication US12534531 (MacroGenics, dated 2026)

T1: biotinylated-soluble human LAG-3-Fc fusion protein (human, UniProt P18627 23-450, biotinylated (site not stated))
T1 construct: whole entry named; also called shLAG-3; shLAG-3-Fc; not shown: Fc
T1 sequence: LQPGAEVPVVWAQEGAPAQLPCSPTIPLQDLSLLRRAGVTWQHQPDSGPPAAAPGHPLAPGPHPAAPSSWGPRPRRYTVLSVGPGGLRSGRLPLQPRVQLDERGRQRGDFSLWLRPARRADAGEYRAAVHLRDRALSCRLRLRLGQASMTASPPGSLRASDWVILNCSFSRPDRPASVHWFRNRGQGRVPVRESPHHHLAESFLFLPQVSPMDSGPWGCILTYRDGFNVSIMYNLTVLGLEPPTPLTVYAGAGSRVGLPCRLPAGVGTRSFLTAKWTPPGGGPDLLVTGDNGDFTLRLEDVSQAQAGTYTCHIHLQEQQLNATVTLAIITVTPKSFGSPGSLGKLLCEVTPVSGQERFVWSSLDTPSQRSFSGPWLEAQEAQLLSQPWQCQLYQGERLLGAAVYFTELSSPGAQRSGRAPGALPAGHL

T2: human LAG-3 expressed on NSO cells (human, UniProt P18627 29-525)
T2 sequence: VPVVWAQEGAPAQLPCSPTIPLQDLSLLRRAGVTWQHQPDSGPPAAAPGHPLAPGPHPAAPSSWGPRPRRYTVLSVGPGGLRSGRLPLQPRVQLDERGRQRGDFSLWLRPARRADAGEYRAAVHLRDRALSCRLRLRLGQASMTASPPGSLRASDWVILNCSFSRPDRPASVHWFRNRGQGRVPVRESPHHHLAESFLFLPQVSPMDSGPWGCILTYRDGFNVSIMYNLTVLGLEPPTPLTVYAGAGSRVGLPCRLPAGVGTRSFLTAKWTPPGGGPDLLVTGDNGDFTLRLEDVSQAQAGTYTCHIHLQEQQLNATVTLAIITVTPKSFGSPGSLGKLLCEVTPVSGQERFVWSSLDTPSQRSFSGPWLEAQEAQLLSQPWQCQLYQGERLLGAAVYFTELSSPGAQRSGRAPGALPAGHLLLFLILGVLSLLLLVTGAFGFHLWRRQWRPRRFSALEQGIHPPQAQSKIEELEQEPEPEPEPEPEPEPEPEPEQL


Legend:
[1] = target: T3, human PD-1 expressed on the surface of cells (NSO cells expressing human PD-1; MNFAT-luc2/PD-1 Jurkat cells) (human, UniProt Q15116 21-288); assay: FACS: inhibition of sPD-L2 binding to PD-1 on NSO cells; SM; SD 0.7891
T3 construct: also called cell surface PD-1; PDCD1 transfected NSO cells expressing PD-1
T3 sequence (Q15116 21-288): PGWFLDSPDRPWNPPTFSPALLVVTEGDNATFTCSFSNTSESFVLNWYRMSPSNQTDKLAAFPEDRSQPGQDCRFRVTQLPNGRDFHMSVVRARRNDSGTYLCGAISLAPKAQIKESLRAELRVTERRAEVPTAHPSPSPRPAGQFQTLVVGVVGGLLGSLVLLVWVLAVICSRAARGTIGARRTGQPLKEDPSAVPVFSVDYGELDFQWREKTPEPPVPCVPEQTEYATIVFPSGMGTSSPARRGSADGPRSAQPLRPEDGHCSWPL

[2] = target: T1, biotinylated-soluble human LAG-3-Fc …; assay: FACS: inhibition of shLAG-3-Fc binding to MHC II on Daudi cells (column head prints EC50); SM; SD 3.3552
[3] = target: T2, human LAG-3 expressed on NSO cells; assay: FACS saturation binding to NSO cells expressing LAG-3; SM; SD 0.3045
[4] = target: T3, human PD-1 expressed on the surface of …; assay: FACS: inhibition of sPD-L1 binding to PD-1 on NSO cells; SM; SD 0.3581
[5] = target: T3, human PD-1 expressed on the surface of …; assay: FACS saturation binding to NSO cells expressing PD-1; SM; SD 0.6227
[6] = target: T1, biotinylated-soluble human LAG-3-Fc …; assay: FACS: inhibition of shLAG-3-Fc binding to MHC II on Daudi cells (column head prints EC50); SM; SD 1.2674
[7] = target: T3, human PD-1 expressed on the surface of …; assay: FACS: inhibition of sPD-L2 binding to PD-1 on NSO cells; SM; SD 0.0846
[8] = target: T3, human PD-1 expressed on the surface of …; assay: FACS saturation binding to NSO cells expressing PD-1; single experiment
[9] = target: T3, human PD-1 expressed on the surface of …; assay: FACS: inhibition of sPD-L1 binding to PD-1 on NSO cells; SM; SD 0.1729
[10] = target: T2, human LAG-3 expressed on NSO cells; assay: FACS saturation binding to NSO cells expressing LAG-3; SM; SD 0.5770

Row | IC50 [1] | IC50 [2] | EC50 [3] | IC50 [4] | EC50 [5] | IC50 [6] | IC50 [7] | EC50 [8] | EC90 [8] | IC50 [9] | EC50 [10] | Binder
1 | 2.55 µM | 2.06 µM | 0.94 µM | 1.6 µM | 1.15 µM | – | – | – | – | – | – | DART G (bispecific antibody, human IgG1, kappa, L234A L235A) chain 1: QVQLVQSGAEVKKPGASVKVSCKASGYTFTNYGMNWVRQAPGQGLEWMGWINTYTGESTYADDFEGRFVFSMDTSASTAYLQISSLKAEDTAVYYCARESLYDYYSMDYWGQGTTVTVSSASTKGPSVFPLAPSSKSTSGGTAALGCLVKDYFPEPVTVSWNSGALTSGVHTFPAVLQSSGLYSLSSVVTVPSSSLGTQTYICNVNHKPSNTKVDKRVEPKSCDKTHTCPPCPAPEAAGGPSVFLFPPKPKDTLYITREPEVTCVVVDVSHEDPEVKFNWYVDGVEVHNAKTKPREEQYNSTYRVVSVLTVLHQDWLNGKEYKCKVSNKALPAPIEKTISKAKGQPREPQVYTLPPSREEMTKNQVSLSCAVKGFYPSDIAVEWESNGQPENNYKTTPPVLDSDGSFFLVSKLTVDKSRWQQGNVFSCSVMHEALHAKYTQKSLSLSPG chain 2: DIVMTQTPLSLSVTPGQPASISCKSSQSLLHSDAKTYLNWLLQKPGQPPERLIYLVSELDSGVPDRFSGSGSGTDFTLKISRVEAEDVGVYYCWQGTHFPYTFGGGTKVEIKRTVAAPSVFIFPPSDEQLKSGTASVVCLLNNFYPREAKVQWKVDNALQSGNSQESVTEQDSKDSTYSLSSTLTLSKADYEKHKVYACEVTHQGLSSPVTKSFNRGEC chain 3: QVQLVQSGAEVKKPGASVKVSCKASGYTFTNYGMNWVRQAPGQGLEWMGWINTYTGESTYADDFEGRFVFSMDTSASTAYLQISSLKAEDTAVYYCARESLYDYYSMDYWGQGTTVTVSSASTKGPSVFPLAPSSKSTSGGTAALGCLVKDYFPEPVTVSWNSGALTSGVHTFPAVLQSSGLYSLSSVVTVPSSSLGTQTYICNVNHKPSNTKVDKRVEPKSCDKTHTCPPCPAPEAAGGPSVFLFPPKPKDTLYITREPEVTCVVVDVSHEDPEVKFNWYVDGVEVHNAKTKPREEQYNSTYRVVSVLTVLHQDWLNGKEYKCKVSNKALPAPIEKTISKAKGQPREPQVYTLPPSREEMTKNQVSLWCLVKGFYPSDIAVEWESNGQPENNYKTTPPVLDSDGSFFLYSKLTVDKSRWQQGNVFSCSVMHEALHNHYTQKSLSLSPGGGGSGGGSGGGEIVLTQSPATLSLSPGERATLSCRASESVDNYGMSFMNWFQQKPGQPPKLLIHAASNQGSGVPSRFSGSGSGTDFTLTISSLEPEDFAVYFCQQSKEVPYTFGGGTKVEIKGGGSGGGGQVQLVQSGAEVKKPGASVKVSCKASGYSFTSYWMNWVRQAPGQGLEWIGVIHPSDSETWLDQKFKDRVTITVDKSTSTAYMELSSLRSEDTAVYYCAREHYGTSPFAYWGQGTLVTVSSGGCGGGEVAALEKEVAALEKEVAALEKEVAALEK chain 4: EIVLTQSPATLSLSPGERATLSCRASESVDNYGMSFMNWFQQKPGQPPKLLIHAASNQGSGVPSRFSGSGSGTDFTLTISSLEPEDFAVYFCQQSKEVPYTFGGGTKVEIKGGGSGGGGQVQLVQSGAEVKKPGASVKVSCKASGYSFTSYWMNWVRQAPGQGLEWIGVIHPSDSETWLDQKFKDRVTITVDKSTSTAYMELSSLRSEDTAVYYCAREHYGTSPFAYWGQGTLVTVSSGGCGGGKVAALKEKVAALKEKVAALKEKVAALKE
2 | – | – | – | – | – | 1.53 µM | 0.839 µM | 1.43 µM | 14.6 µM | 0.57 µM | 5.01 µM | DART F (bispecific antibody, human IgG1, kappa, L234A L235A) chain 1: QVQLVQSGAEVKKPGASVKVSCKASGYSFTSYWMNWVRQAPGQGLEWIGVIHPSDSETWLDQKFKDRVTITVDKSTSTAYMELSSLRSEDTAVYYCAREHYGTSPFAYWGQGTLVTVSSASTKGPSVFPLAPSSKSTSGGTAALGCLVKDYFPEPVTVSWNSGALTSGVHTFPAVLQSSGLYSLSSVVTVPSSSLGTQTYICNVNHKPSNTKVDKRVEPKSCDKTHTCPPCPAPEAAGGPSVFLFPPKPKDTLYITREPEVTCVVVDVSHEDPEVKFNWYVDGVEVHNAKTKPREEQYNSTYRVVSVLTVLHQDWLNGKEYKCKVSNKALPAPIEKTISKAKGQPREPQVYTLPPSREEMTKNQVSLSCAVKGFYPSDIAVEWESNGQPENNYKTTPPVLDSDGSFFLVSKLTVDKSRWQQGNVFSCSVMHEALHAKYTQKSLSLSPG chain 2: EIVLTQSPATLSLSPGERATLSCRASESVDNYGMSFMNWFQQKPGQPPKLLIHAASNQGSGVPSRFSGSGSGTDFTLTISSLEPEDFAVYFCQQSKEVPYTFGGGTKVEIKRTVAAPSVFIFPPSDEQLKSGTASVVCLLNNFYPREAKVQWKVDNALQSGNSQESVTEQDSKDSTYSLSSTLTLSKADYEKHKVYACEVTHQGLSSPVTKSFNRGEC chain 3: QVQLVQSGAEVKKPGASVKVSCKASGYSFTSYWMNWVRQAPGQGLEWIGVIHPSDSETWLDQKFKDRVTITVDKSTSTAYMELSSLRSEDTAVYYCAREHYGTSPFAYWGQGTLVTVSSASTKGPSVFPLAPSSKSTSGGTAALGCLVKDYFPEPVTVSWNSGALTSGVHTFPAVLQSSGLYSLSSVVTVPSSSLGTQTYICNVNHKPSNTKVDKRVEPKSCDKTHTCPPCPAPEAAGGPSVFLFPPKPKDTLYITREPEVTCVVVDVSHEDPEVKFNWYVDGVEVHNAKTKPREEQYNSTYRVVSVLTVLHQDWLNGKEYKCKVSNKALPAPIEKTISKAKGQPREPQVYTLPPSREEMTKNQVSLWCLVKGFYPSDIAVEWESNGQPENNYKTTPPVLDSDGSFFLYSKLTVDKSRWQQGNVFSCSVMHEALHNHYTQKSLSLSPGGGGSGGGSGGGDIVMTQTPLSLSVTPGQPASISCKSSQSLLHSDAKTYLNWLLQKPGQPPERLIYLVSELDSGVPDRFSGSGSGTDFTLKISRVEAEDVGVYYCWQGTHFPYTFGGGTKVEIKGGGSGGGGQVQLVQSGAEVKKPGASVKVSCKASGYSFTSYWMNWVRQAPGQGLEWIGVIHPSDSETWLDQKFKDRVTITVDKSTSTAYMELSSLRSEDTAVYYCAREHYGTSPFAYWGQGTLVTVSSGGCGGGEVAALEKEVAALEKEVAALEKEVAALEK chain 4: EIVLTQSPATLSLSPGERATLSCRASESVDNYGMSFMNWFQQKPGQPPKLLIHAASNQGSGVPSRFSGSGSGTDFTLTISSLEPEDFAVYFCQQSKEVPYTFGGGTKVEIKGGGSGGGGQVQLVQSGAEVKKPGASVKVSCKASGYTFTNYGMNWVRQAPGQGLEWMGWINTYTGESTYADDFEGRFVFSMDTSASTAYLQISSLKAEDTAVYYCARESLYDYYSMDYWGQGTTVTVSSGGCGGGKVAALKEKVAALKEKVAALKEKVAALKE
